The results in this text go back to patent US20130136691A1 (BRACCO IMAGING S P A, published 2013).

Assay [1] has as its target T1, neuromedin-B preferring receptor (NMB-R) on C6 rodent glioblastoma cells (rodent, UniProt P24053 1-390, limits assumed).
T1 construct: whole, on cells; also called C6/NMB-R
T1 sequence (looked up): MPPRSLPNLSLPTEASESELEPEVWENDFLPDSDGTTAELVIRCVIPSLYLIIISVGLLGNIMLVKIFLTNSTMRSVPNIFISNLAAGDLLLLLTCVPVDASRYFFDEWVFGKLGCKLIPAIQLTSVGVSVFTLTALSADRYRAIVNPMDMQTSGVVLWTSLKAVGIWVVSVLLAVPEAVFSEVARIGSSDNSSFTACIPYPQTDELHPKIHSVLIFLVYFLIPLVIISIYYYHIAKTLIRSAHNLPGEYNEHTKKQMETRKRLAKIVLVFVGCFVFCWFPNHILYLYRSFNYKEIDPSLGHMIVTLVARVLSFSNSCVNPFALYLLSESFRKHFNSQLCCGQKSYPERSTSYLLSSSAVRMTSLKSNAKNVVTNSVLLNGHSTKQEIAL
The experiment in a line: 125I-NMB competition, C6 cells.

In assay [2] the target is T2, gastrin releasing peptide receptor (GRP-R) (human, UniProt P30550 1-384).
T2 construct: whole, on cells; also called GRP receptor; BB2
The assay is described as follows: 125I-BBN competition, PC3 cells.

T2 sequence (P30550 whole entry): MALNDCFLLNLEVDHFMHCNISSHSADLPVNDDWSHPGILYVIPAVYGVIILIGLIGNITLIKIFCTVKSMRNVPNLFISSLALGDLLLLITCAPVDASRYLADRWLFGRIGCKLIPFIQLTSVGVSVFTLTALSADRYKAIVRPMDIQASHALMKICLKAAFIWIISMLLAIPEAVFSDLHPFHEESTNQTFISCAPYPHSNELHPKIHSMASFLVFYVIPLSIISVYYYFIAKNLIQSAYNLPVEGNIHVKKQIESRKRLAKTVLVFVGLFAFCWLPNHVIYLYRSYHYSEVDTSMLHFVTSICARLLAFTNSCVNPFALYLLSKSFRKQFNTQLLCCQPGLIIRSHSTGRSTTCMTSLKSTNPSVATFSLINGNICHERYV

QWAVGHLM (N-term: N,N-dimethylglycine-Ser-Cys(Acm)-Gly-Ser-Arg; C-term amide) [N,N-dimethylglycine-Ser-Cys(Acm)-Gly-SR-QWAVGHLM-NH2] gave an IC50 in assay [1] of 2 nM. In the case of QWAVGHLM (N-term: N,N-dimethylglycine-Ser-Cys(Acm)-Gly-Lys-Glu; C-term amide) [N,N-dimethylglycine-Ser-Cys(Acm)-Gly-KE-QWAVGHLM-NH2], the half-inhibitory concentration (IC50) in assay [1] came to 60 nM. On to QWAVGHLM (N-term: N,N-dimethylglycine-Ser-Cys(Acm)-Gly-Ser-Lys; C-term amide) [N,N-dimethylglycine-Ser-Cys(Acm)-Gly-SK-QWAVGHLM-NH2], for which the IC50 in assay [2] turned out to be 2 nM.
